Test results from patent publication US20220152100A1, “METHODS FOR CONTROLLED ACTIVATION OR ELIMINATION OF THERAPEUTIC CELLS” (Bellicum Pharmaceuticals, Inc., priority 2014, published 2022).
Substitutions are numbered along the chain they refer to. In names and notes the source's numbering stands. Entries after “also recorded” stand apart in the source; their conditions may differ. Where a SMILES comes first, the peptide text is derived from it. The star is where a group is joined. Cbz = O=C(OCc1ccccc1)*; CH2F = FC*

B1: D330A: chimeric modified Caspase-9 polypeptide, SEQ ID NO: 24 (protein)
chain: GFGDVGALESLRGNADLAYILSMEPCGHCLIINNVNFCRESGLRTRTGSNIDCEKLRRRFSSLHFMVEVKGDLTAKKMVLALLELARQDHGALDCCVVVILSHGCQASHLQFPGAVYGTDGCPVSVEKIVNIFNGTSCPSLGGKPKLFFIQACGGEQKDHGFEVASTSPEDESPGSNPEPDATPFQEGLRTFDQLAAISSLPTPSDIFVSYSTFPGFVSWRDPKSGSWYVETLDDIFEQWAHSEDLQSLLLRVANAVSVKGIYKQMPGCFNFLRKKLFFKTS
B2: N405Q: chimeric modified Caspase-9 polypeptide, SEQ ID NO: 26 (protein)
chain: B1 chain with A196D, N271Q
B3: ^316ATPF^319AVPI: Caspase-9 with XIAP-binding tetrapeptide ATPF replaced by AVPI from SMAC/DIABLO (protein, UniProt P55211 1-416, looked up, variant T317V F319I)
chain: MDEADRRLLRRCRLRLVEELQVDQLWDALLSRELFRPHMIEDIQRAGSGSRRDQARQLIIDLETRGSQALPLFISCLEDTGQDMLASFLRTNRQAAKLSKPTLENLTPVVLRPEIRKPEVLRPETPRPVDIGSGGFGDVGALESLRGNADLAYILSMEPCGHCLIINNVNFCRESGLRTRTGSNIDCEKLRRRFSSLHFMVEVKGDLTAKKMVLALLELAQQDHGALDCCVVVILSHGCQASHLQFPGAVYGTDGCPVSVEKIVNIFNGTSCPSLGGKPKLFFIQACGGEQKDHGFEVASTSPEDESPGSNPEPDAVPIQEGLRTFDQLDAISSLPTPSDIFVSYSTFPGFVSWRDPKSGSWYVETLDDIFEQWAHSEDLQSLLLRVANAVSVKGIYKQMPGCFNFLRKKLFFKTS
modifications: ATPF replaced by SMAC AVPI motif
B4: A331K: chimeric modified Caspase-9 polypeptide (protein)
chain: VDGFGDVGALESLRGNADLAYILSMEPCGHCLIINNVNFCRESGLRTRTGSNIDCEKLRRRFSSLHFMVEVKGDLTAKKMVLALLELARQDHGALDCCVVVILSHGCQASHLQFPGAVYGTDGCPVSVEKIVNIFNGTSCPSLGGKPKLFFIQACGGEQKDHGFEVASTSPEDESPGSNPEPDATPFQEGLRTFDQLDKISSLPTPSDIFVSYSTFPGFVSWRDPKSGSWYVETLDDIFEQWAHSEDLQSLLLRVANAVSVKGIYKQMPGCFNFLRKKLFFKTSASRA
B5: T317A: chimeric modified Caspase-9 polypeptide (protein)
chain: B4 chain with T185A, K199A
B6: D330N: chimeric modified Caspase-9 polypeptide (protein)
chain: B4 chain with D198N, K199A
B7: D330V: chimeric modified Caspase-9 polypeptide (protein)
chain: B4 chain with D198V, K199A
B8: D330S: chimeric modified Caspase-9 polypeptide (protein)
chain: B4 chain with D198S, K199A
B9: D330E: chimeric modified Caspase-9 polypeptide, SEQ ID NO: 188 (protein)
chain: B4 chain with D198E, K199A
B10: T317C: chimeric modified Caspase-9 polypeptide (protein)
chain: B4 chain with T185C, K199A
B11: D330G: chimeric modified Caspase-9 polypeptide (protein)
chain: B4 chain with D198G, K199A
B12: F404Y: chimeric modified Caspase-9 polypeptide (protein)
chain: B4 chain with K199A, F272Y

Tested on: HEK293T/16 cells
Experiment: SEAP-based surrogate killing assay of iCasp9 mutants
Type: cell-based, human
Conditions: 1 μg iCasp9 per million cells
Method: Early passage HEK293T/16 cells (ATCC, Manassas, Va.) were maintained in IMDM, GlutaMAX™ (Life Technologies, Carlsbad, Calif.) supplemented with 10% FBS, 100 U/mL penicillin, and 100 […] until transfection in a humidified, 37° C., 5% CO2/95% air atmosphere. Cells in logarithmic-phase growth were transiently transfected with 800 ng to 2 μg of expression plasmid encoding iCasp9 mutants and 500 ng of an expression plasmid encoding SRα promoter driven SEAP per million cells in 15-mL conical tubes. […] GeneJammer® Transfection Reagent at a ratio of 3 μl per ug of plasmid DNA was used to transiently transfect HEK293T/16 cells in the absence of antibiotics. 100 μl or 2 mL of the transfection mixture was added to each well in 96-well or 6-well plate, respectively.
Briefly, after 65° C. heat denaturation for 45 minutes to reduce background caused by endogenous (and serum-derived) alkaline phosphatases that are sensitive to heat, 5 μl of supernatants was added to 95 μl of PBS and added to 100 μl of substrate buffer, containing 1 μl of 100 mM 4-methylumbelliferyl phosphate (4-MUP; Sigma, St. Louis, Mo.) re-suspended in 2 M diethanolamine. Hydrolysis of 4-MUP by SEAP produces a fluorescent […] with excitation/emission (355/460 nm), which can be easily measured. Assays were performed in black opaque 96-well plates to minimize fluorescence leakage between wells. […] of the mixture was seeded onto each well of a 96-well plate. […] For the assay, 4-methylumbelliferyl phosphate substrate was hydrolyzed by SEAP to 4-methylumbelliferon, a metabolite that can be excited with 364 nm and detected with an emission filter of 448 nm. Since SEAP is used as a marker for cell viability, reduced SEAP reading corresponds with increased iCaspase-9 activities.

Row | Molecule | relative SEAP activity Units (basal, without AP1903)
1 | B1 | 148928
2 | B2 | 179081

Same assay, conditions: 2 μg iCasp9 per million cells

Row | Molecule | relative SEAP activity Units (basal, without AP1903)
3 | B1 | 136863
4 | B2 | 175529

Same assay, conditions: in words, versus wild type

Row | Molecule | effect on basal / catalytic activity
5 | B3 | no effect
6 | B1 | lowered basal activity, but not as low as in N405Q; also recorded: less basal activity than wild type Caspase-9
7 | B2 | lowered basal activity; also recorded: lower basal activity than D330A
8 | B4 | did not lower basal activity
9 | B5 | can reduce basal activity without a large shift in the IC50
10 | B6 | less basal activity than wild type Caspase-9
11 | B7 | less basal activity than wild type Caspase-9
12 | B8 | less basal activity than wild type Caspase-9
13 | B9 | less basal activity than wild type Caspase-9
14 | B10 | no effect
15 | B11 | less basal activity than wild type Caspase-9

Tested on: PG13
Experiment: not given
Type: cell-based
Conditions: PG13 cross-transduced five times

Row | Molecule | CD19 mean fluorescence intensity (MFI)
16 | B1 | enhanced CD19 mean fluorescence intensity
17 | B2 | enhanced CD19 mean fluorescence intensity
18 | B9 | enhanced CD19 mean fluorescence intensity

Same assay, conditions: upon HAT media treatment, HT1080 cells

Row | Molecule | viral titers
19 | B1 | higher viral titers
20 | B2 | higher viral titers
21 | B9 | higher viral titers

Tested on: Primary T cells
Experiment: AP1903-dependent cytotoxicity in primary T cells transduced with iCasp9 variants (CD3+CD19+ flow cytometry)
Type: cell-based, human
Conditions: not given
Method: The effects of various caspase polypeptides at mostly single copy in primary T cells was assayed. This may reflect more accurately how these suicide genes will be used therapeutically.
Primary T cells from healthy donors (n=6) were transduced with retrovirus encoding mutant or wild-type iCasp9 or iCasp9-D330A, and the ΔCD19 cell surface marker. Following transduction, iCasp9-transduced T cells were purified using CD19-microbeads and a magnetic column.

Row | Molecule | sensitivity to AP1903 / killing of target cells
22 | B1 | more sensitive to AP1903 at low titers and kills at least as well as WT Caspase-9
23 | B2 | less sensitive to AP1903 and cannot kill target cells as efficiently within 24 hours

Same assay, conditions: 6 healthy donors, AP1903 0-100 nM, 24 hours

Row | Molecule | IC50 of AP1903
24 | B1 | significantly lower

Same assay, conditions: AP1903 at Day 0 and day 4, within 10 days

Row | Molecule | killing of target T cells
25 | B2 | can kill target T cells indistinguishable from wild type Caspase-9 polypeptide or D330A within 10 days
26 | B12 | can kill target T cells indistinguishable from wild type Caspase-9 polypeptide or D330A within 10 days

Tested on: EBV-specific CTL lines (EBV-CTL)
Experiment: CID-induced elimination/apoptosis of transduced EBV-CTLs (GFP, annexin V/7-AAD flow cytometry)
Type: cell-based, human
Conditions: 100 μM for 1 hour prior to adding CID

Row | Molecule | effect on CID-induced apoptosis
27 | COC(=O)C[C@H](NC(=O)[C@H](C)NC(=O)[C@@H](NC(=O)OCc1ccccc1)C(C)C)C(=O)CF [zVAD-fmk] (Cbz-Val-Ala-Asp(OMe)-CH2F) | inhibited
